Source: US20230391844

Legend:
[1] = system: mAb-PCL(15AA)-IL2-PCL(15AA)-IL2Rα
[2] = system: mAb-PCL(15AA)-IL2-PCL(20AA)-IL2Rα

Which “release of free IL2 after uPA digestion (reducing SDS-PAGE, western blot probed with biotinylated anti-hIL2)” value [1] does the source give for “recombinant human uPA (R&D Cat #1310-SE)” here?
The value was “Protease digestion of the IL2 proproteins with uPA resulted in the release of free IL2 from both IL2 proproteins”.

And the “release of free IL2 after uPA digestion (reducing SDS-PAGE, western blot probed with biotinylated anti-hIL2)” value [2]?
The value was “the IL2 proprotein construct comprising a 20AA linker between IL2 and IL2Rα domains displayed a more complete linker digestion and IL2 release relative to the construct comprising a 15AA linker between IL2 and IL2Rα”.
